Test results as given in patent publication CN116440263A (SHANGHAI JUNSHI BIOSCIENCES CO LTD; JUNMENG BIOSCIENCES CO …, dated 2023).

Target: T1, His标签的重组人CTLA-4抗原蛋白 (human, UniProt P16410 36-161, limits assumed)
T1 construct: Made in-house (君盟自制); also called 重组人CTLA-4蛋白; 人CTLA-4蛋白; not shown: His tag
T1 sequence (looked up): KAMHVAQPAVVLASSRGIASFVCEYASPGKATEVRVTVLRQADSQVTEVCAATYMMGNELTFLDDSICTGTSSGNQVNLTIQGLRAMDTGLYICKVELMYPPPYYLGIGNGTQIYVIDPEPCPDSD
Assay: SPR (Biacore T200): antibody captured on goat anti-human Fc CM5 chip, His-tagged CTLA-4 0.75-24 nM as analyte, kinetic fit

Kd: 0.206 nM
koff: 0.000169 s⁻¹
kon: 818000 M⁻¹ s⁻¹
B1: huJS007-47 (antibody, V domains shown)
VH: QVQLQESGPGLVKPSQTLSLTCTVSAYSITSGYYWNWIRQHPGKGLEWIGYIGYDGSNNYNPSLKSRVTISRDTSKNQFSLKLSSVTAADTAVYYCARDYYSGYFDSWGQGTTLTVSS
VL: DIQMTQSPSSLSASVGDRVTITCRASQNVGTYVAWYQQKPGKVPKPLIYSTSYRYSGVPSRFSGSGSGTDFTLTISSLQPEDVATYFCHQYDTYPLTFGAGTKLELKR
